The values that follow come from PMC7748022.

The target in data set [1] is T1, GST-PIF4 (UniProt Q8W2F3 1-430).
T1 sequence: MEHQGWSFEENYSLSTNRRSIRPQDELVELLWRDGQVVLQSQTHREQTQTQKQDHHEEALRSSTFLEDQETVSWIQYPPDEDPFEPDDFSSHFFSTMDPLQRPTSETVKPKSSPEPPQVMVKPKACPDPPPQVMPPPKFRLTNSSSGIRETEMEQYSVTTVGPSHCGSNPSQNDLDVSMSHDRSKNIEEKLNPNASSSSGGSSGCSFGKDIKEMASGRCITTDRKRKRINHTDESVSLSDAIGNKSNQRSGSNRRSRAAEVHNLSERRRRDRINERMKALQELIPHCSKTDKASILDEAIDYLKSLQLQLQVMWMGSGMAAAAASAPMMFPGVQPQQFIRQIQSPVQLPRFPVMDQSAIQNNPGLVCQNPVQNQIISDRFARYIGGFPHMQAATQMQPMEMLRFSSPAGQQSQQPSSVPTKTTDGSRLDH
As to the kind of experiment: EMSA. In general terms: Mobility shift assays separate free from complexed probe on a gel.

Data set [2] concerns the target T1, GST-PIF4. As to the kind of experiment: competition.

Changes are numbered by the printed parent chain.

B1: PIF4 promoter probe (G-box) (dsDNA)
DNA 1: ATTCCAACACAATGTCCCAGAACTTGCCACGTGTCGTTCATTTCAAAAGATTGCAGTACT
DNA 2: AGTACTGCAATCTTTTGAAATGAACGACACGTGGCAAGTTCTGGGACATTGTGTTGGAAT
Turning to B1, the binding result in the data set with GST-PIF4 [1] is reported as “binds”.

B2: PIF4-MU probe (CACGTG to AACGTG) (dsDNA)
DNA 1: B1 DNA 1 with C28A
DNA 2: B1 DNA 2 with G33T
With B2, the binding result with GST-PIF4 [2] was “no binding”.
